Experimental data: patent publication US20140271457A1 (AbbVie / Abbott, published 2014)

Assays:
[1] = target: Recombinant Human TNF-α/TNFSF1A (human, UniProt P01375 77-233); assay: cell-based or functional assay
Recombinant Human β-NGF = Recombinant Human β-NGF (human, UniProt P01138 122-241); assay: cell-based or functional assay
Chain of Recombinant Human β-NGF (P01138 122-241 limits assumed): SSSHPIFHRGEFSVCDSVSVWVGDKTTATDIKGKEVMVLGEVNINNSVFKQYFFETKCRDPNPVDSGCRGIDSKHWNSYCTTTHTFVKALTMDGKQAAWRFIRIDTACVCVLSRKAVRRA

Chain of Recombinant Human TNF-α/TNFSF1A (P01375 77-233 limits assumed): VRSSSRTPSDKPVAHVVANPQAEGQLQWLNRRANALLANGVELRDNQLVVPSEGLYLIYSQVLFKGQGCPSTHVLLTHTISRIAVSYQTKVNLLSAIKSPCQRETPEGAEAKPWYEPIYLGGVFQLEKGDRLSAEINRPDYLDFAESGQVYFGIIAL

Row | Binder | C-Terminal VD huTNFα Neutralization Assay IC50 [1] [nM] | N-Terminal VD NGF Neutralization Assay IC50 (Recombinant Human β-NGF) [nM] | N-Terminal VD huTNFα Neutralization Assay IC50 [1] [nM] | C-Terminal VD NGF Neutralization Assay IC50 (Recombinant Human β-NGF) [nM]
1 | DVD2719 (bispecific antibody, IgG1) VH: EVQLVESGGGLVQPGGSLRLSCAASGFSLTNNNVNWVRQAPGKGLEWVGGVWAGGATDYNSALKSRFTISRDNSKNTAYLQMNSLRAEDTAVYYCARDGGYSSSTLYAMDAWGQGTLVTVSSASTKGPEVQLVESGGGLVQPGGSLRLSCAASGFTFSNYGVTWVRQAPGKGLEWVSMIWADGSTHYASSVKGRFTISRDNSKNTLYLQMNSLRAEDTAVYYCAREWQHGPVAYWGQGTLVTVSS VL: DIQMTQSPSSLSASVGDRVTITCRASEDIYNALAWYQQKPGKAPKLLIYNTDTLHTGVPSRFSGSGSGTDYTLTISSLQPEDFATYFCQHYFHYPRTFGQGTKVEIKRTVAAPDIQMTQSPSSLSASVGDRVTITCRASQLVSSAVAWYQQKPGKAPKLLIYWASARHTGVPSRFSGSGSGTDFTLTISSLQPEDFATYYCQQHYKTPFTFGQGTKLEIKR | 0.126 | 0.019 | – | –
2 | DVD2721 (bispecific antibody, IgG1) VH: EVQLVESGGGLVQPGGSLRLSCAASGFSLTNNNVNWVRQAPGKGLEWVGGVWAGGATDYNSALKSRFTISRDNSKNTAYLQMNSLRAEDTAVYYCARDGGYSSSTLYAMDAWGQGTLVTVSSASTKGPEVQLVESGGGLVQPGGSLRLSCAASGFTFSNYGVTWVRQAPGKGLEWVSMIWADGSTHYASSVKGRFTISRDNSKNTLYLQMNSLRAEDTAVYYCAREWQHGPVAYWGQGTLVTVSS VL: DIQMTQSPSSLSASVGDRVTITCRASEDIYNALAWYQQKPGKAPKLLIYNTDTLHTGVPSRFSGSGSGTDYTLTISSLQPEDFATYFCQHYFHYPRTFGQGTKVEIKRTVAAPSVFIFPPDIQMTQSPSSLSASVGDRVTITCRASQLVSSAVAWYQQKPGKAPKLLIYWASARHTGVPSRFSGSGSGTDFTLTISSLQPEDFATYYCQQHYKTPFTFGQGTKLEIKR | 0.029 | 0.041 | – | –
3 | DVD2722 (bispecific antibody, IgG1) VH: EVQLVESGGGLVQPGGSLRLSCAASGFSLTNNNVNWVRQAPGKGLEWVGGVWAGGATDYNSALKSRFTISRDNSKNTAYLQMNSLRAEDTAVYYCARDGGYSSSTLYAMDAWGQGTLVTVSSASTKGPSVFPLAPEVQLVESGGGLVQPGGSLRLSCAASGFTFSNYGVTWVRQAPGKGLEWVSMIWADGSTHYASSVKGRFTISRDNSKNTLYLQMNSLRAEDTAVYYCAREWQHGPVAYWGQGTLVTVSS VL: DIQMTQSPSSLSASVGDRVTITCRASEDIYNALAWYQQKPGKAPKLLIYNTDTLHTGVPSRFSGSGSGTDYTLTISSLQPEDFATYFCQHYFHYPRTFGQGTKVEIKRTVAAPDIQMTQSPSSLSASVGDRVTITCRASQLVSSAVAWYQQKPGKAPKLLIYWASARHTGVPSRFSGSGSGTDFTLTISSLQPEDFATYYCQQHYKTPFTFGQGTKLEIKR | 0.19 | 0.053 | – | –
4 | DVD2763 (bispecific antibody, IgG1) VH: EVQLVESGGGLVQPGGSLRLSCAASGFTFSNYGVEWVRQAPGKGLEWVSGIWADGSTHYADTVKSRFTISRDNSKNTLYLQMNSLRAEDTAVYYCAREWQHGPVAYWGQGTLVTVSSGGGGSGGGGSEVQLVESGGGLVQPGGSLRLSCAASGFSLTNNNVNWVRQAPGKGLEWVGGVWAGGATDYNSALKSRFTISRDNSKNTAYLQMNSLRAEDTAVYYCARDGGYSSSTLYAMDAWGQGTLVTVSS VL: DIQMTQSPSSLSASVGDRVTITCKASQLVSSAVAWYQQKPGKAPKLLIYWASTLHTGVPSRFSGSGSGTDFTLTISSLQPEDFATYYCQQHYRTPFTFGQGTKLEIKRGGSGGGGSGDIQMTQSPSSLSASVGDRVTITCRASEDIYNALAWYQQKPGKAPKLLIYNTDTLHTGVPSRFSGSGSGTDYTLTISSLQPEDFATYFCQHYFHYPRTFGQGTKVEIKR | – | – | 0.004 | 0.871
